# From patent publication US20240366788A1 (DUKE UNIVERSITY, published 2024)
# T1: H2-Q7 (QA2), GPI-anchored MHC class Ib molecule on murine T cells (mouse, UniProt P14429 22-334; P01887 21-119)
# T1 construct: whole, on cells; also called H2-Q7/MHC-I
# T1 sequence (MHC heavy, looked up): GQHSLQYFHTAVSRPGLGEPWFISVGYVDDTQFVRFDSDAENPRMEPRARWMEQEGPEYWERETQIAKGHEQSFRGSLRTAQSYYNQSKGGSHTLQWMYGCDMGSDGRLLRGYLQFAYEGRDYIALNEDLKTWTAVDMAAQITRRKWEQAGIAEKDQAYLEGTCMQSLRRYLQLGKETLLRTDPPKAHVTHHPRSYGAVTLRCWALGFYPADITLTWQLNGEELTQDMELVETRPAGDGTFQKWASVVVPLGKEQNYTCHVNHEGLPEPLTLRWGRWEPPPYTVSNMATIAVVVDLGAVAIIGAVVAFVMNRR
# T1 sequence (b2m, looked up): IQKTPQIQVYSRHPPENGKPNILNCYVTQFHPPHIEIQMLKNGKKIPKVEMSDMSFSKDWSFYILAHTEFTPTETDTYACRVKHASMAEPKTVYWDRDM
# Molecular target: T1, H2-Q7 (QA2), GPI-anchored MHC class Ib …
# Test: qPCR of surface-bound viral genomes on C57BL/6J T cells, 1 hr at 4 C, with against without PI-PLC pre-treatment
binder,measurement,value
Ark313 AAV capsid (AAV6 capsid variant with 454-VVNPAEG-460) (other) MAADGYLPDWLEDNLSEGIREWWDLKPGAPKPKANQQKQDDGRGLVLPGYKYLGPFNGLDKGEPVNAADAAALEHDKAYDQQLKAGDNPYLRYNHADAEFQERLQEDTSFGGNLGRAVFQAKKRVLEPFGLVEEGAKTAPGKKRPVEQSPQEPDSSSGIGKTGQQPAKKRLNFGQTGDSESVPDPQPLGEPPATPAAVGPTTMASGGGAPMADNNEGADGVGNASGNWHCDSTWLGDRVITTSTRTWALPTYNNHLYKQISSASTGASNDNHYFGYSTPWGYFDFNRFHCHFSPRDWQRLINNNWGFRPKRLNFKLFNIQVKEVTTNDGVTTIANNLTSTVQVFSDSEYQLPYVLGSAHQGCLPPFPADVFMIPQYGYLTLNNGSQAVGRSSFYCLEYFPSQMLRTGNNFTFSYTFEDVPFHSSYAHSQSLDRLMNPLIDQYLYYLNRTQNQSVVNPAEGLLFSRGSPAGMSVQPKNWLPGPCYRQQRVSKTKTDNNNSNFTWTGASKYNLNGRESIINPGTAMASHKDDKDKFFPMSGVMIFGKESAGASNTALDNVMITDEEEIKATNPVATERFGTVAVNLQSSSTDPATGDVHVMGALPGMVWQDRDVYLQGPIWAKIPHTDGHFHPSPLMGGFGLKHPPPQILIKNTPVPANPPAEFSATKFASFITQYSTGQVSVEIEWELQKENSKRWNPEVQYTSNYAKSANVDFTVDNNGLYTEPRPIGTRYLTRPL,fold reduction in bound virus per cell after PI-PLC treatment (GPI cleavage),~10 fold
